In publication PMC7464098, “Conformational Equilibrium of NADPH–Cytochrome P450 Oxidoreductase Is Essential for Heme Oxygenase Reaction” (Antioxidants, 2020):

Experiments:
Conditions in all cases: both partners purified
[1] = target: T1, rat CPR mutant lacking Thr236 to Glu239 of the hinge (open-form stabilized CPR) (rat, UniProt P00388 58-678, ΔTGEE (from Thr236 to Glu239 removed)); assay: AUC; sedimentation equilibrium, 5 μM heme–rHO-1 plus 5 μM CPR sample, 25 °C, 0.1 M potassium phosphate pH 7.4, 15,000 rpm, absorbance at 455 nm; fit to HO-1 + CPR ⇄ HO-1•CPR
T1 construct: rat NADPH–cytochrome P450 reductase, soluble form without the membrane-spanning region (Met1-Ile57), four consecutive hinge residues Thr236 to Glu239 removed; Holds FAD and FMN; also called ΔTGEE; source: E. coli, purified
T1 sequence (looked up): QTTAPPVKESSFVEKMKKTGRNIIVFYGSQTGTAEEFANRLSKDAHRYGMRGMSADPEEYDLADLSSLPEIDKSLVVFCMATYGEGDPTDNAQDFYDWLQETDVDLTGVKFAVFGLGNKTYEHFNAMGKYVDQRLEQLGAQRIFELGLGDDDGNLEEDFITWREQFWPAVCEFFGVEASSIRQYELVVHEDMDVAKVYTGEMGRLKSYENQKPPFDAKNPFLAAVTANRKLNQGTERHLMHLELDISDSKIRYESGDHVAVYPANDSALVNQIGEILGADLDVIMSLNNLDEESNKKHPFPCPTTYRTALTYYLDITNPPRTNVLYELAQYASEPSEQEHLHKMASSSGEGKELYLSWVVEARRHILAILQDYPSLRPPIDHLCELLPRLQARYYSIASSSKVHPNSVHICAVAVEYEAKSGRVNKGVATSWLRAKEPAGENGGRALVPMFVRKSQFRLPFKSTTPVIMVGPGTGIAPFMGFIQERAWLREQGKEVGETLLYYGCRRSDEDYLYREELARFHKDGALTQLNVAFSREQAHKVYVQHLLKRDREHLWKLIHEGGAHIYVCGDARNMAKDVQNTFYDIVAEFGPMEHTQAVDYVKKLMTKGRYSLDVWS

[2] = target: rat CPR mutant with a disulfide bridge Cys147–Cys514 (closed-form stabilized CPR) (rat, UniProt P00388 58-678, Asp147 substituted with cysteine | Arg514 substituted with cysteine | Cys136Ala …, disulfide bond between Cys147 and Cys514); assay: AUC; sedimentation equilibrium, equimolar mixtures (15 μM each for 147CC514; concentrations for rCPR and IAM/DTT-treated 147CC514 not told), 25 °C, 0.1 M potassium phosphate pH 7.4, 15,000 rpm, absorbance at 455 nm; apparent affinity
IAM/DTT-treated 147CC514 = IAM/DTT-treated 147CC514 (rat, UniProt P00388 58-678, Asp147 substituted with cysteine | Arg514 substituted with cysteine | Cys136Ala …, disulfide bond between Cys147 and Cys514 cleaved, both cysteine residues alkylated (2-iodoacetamide)); assay: as above
[3] = target: T2, rat NADPH–cytochrome P450 oxidoreductase (soluble form) (rat, UniProt P00388 58-678); assay: as above
T2 construct: Holds FAD and FMN; The limit Met1-Ile57 is printed in the sentence on the 147CC514 cDNA; also called rCPR; CPR; source: E. coli, purified
T2 sequence (looked up): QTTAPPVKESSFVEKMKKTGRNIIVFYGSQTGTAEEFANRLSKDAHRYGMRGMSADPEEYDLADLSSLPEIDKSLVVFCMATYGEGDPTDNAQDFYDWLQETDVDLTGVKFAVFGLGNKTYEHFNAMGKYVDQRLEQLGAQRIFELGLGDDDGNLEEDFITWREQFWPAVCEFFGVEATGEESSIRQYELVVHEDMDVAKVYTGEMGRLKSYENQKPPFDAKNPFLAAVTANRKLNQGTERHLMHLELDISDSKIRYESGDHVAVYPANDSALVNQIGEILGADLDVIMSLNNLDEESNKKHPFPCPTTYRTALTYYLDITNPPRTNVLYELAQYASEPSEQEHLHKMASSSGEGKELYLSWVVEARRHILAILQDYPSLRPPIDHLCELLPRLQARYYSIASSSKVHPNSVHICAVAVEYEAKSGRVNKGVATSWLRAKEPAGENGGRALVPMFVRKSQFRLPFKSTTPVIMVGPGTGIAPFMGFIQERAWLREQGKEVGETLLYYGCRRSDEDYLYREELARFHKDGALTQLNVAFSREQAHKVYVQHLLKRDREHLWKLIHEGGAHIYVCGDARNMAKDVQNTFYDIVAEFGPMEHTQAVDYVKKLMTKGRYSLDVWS

B1: heme–rat heme oxygenase-1 complex (soluble form) (enzyme)
chain: MERPQLDSMSQDLSEALKEATKEVHIRAENSEFMRNFQKGQVSREGFKLVMASLYHIYTALEEEIERNKQNPVYAPLYFPEELHRRAALEQDMAFWYGPHWQEAIPYTPATQHYVKRLHEVGGTHPELLVAHAYTRYLGDLSGGQVLKKIAQKAMALPSSGEGLAFFTFPSIDNPTKFKQLYRARMNTLEMTPEVKHRVTEEAKTAFLLNIELFEELQALLTEEHKDQSPSQTEFLRQRPASLVQDTTSAETPRGKSQISTSSSQTP
notes: rat heme oxygenase-1 (HO-1), soluble form made by removing the membrane-spanning region; also called heme–rHO-1; heme–HO-1; source: E. coli, purified; reconstituted with 1.2 equiv. of heme, hydroxyapatite column
Kd [1]: 0.178 ± 0.077 µM | Kd [2]: 111 ± 5 µM | Kd (IAM/DTT-treated 147CC514): 65.5 ± 17 µM | Kd [3]: 62.1 ± 1.7 µM
